From patent publication US20230062308A1, “TREATMENT OF CK8 POSITIVE CANCERS IN RELATION WITH K-RAS GENE STATUS” (INTERNATIONAL - DRUG - DEVELOPMENT - BIOTECH, priority 2017, published 2023)

Target: T1, eCK8 (Homo sapiens, UniProt P05787)
T1 construct: methods to investigate on CK8 cellular expression at the cell surface analysed by flow cytometry; endogenous in cells
T1 sequence (P05787 1-483): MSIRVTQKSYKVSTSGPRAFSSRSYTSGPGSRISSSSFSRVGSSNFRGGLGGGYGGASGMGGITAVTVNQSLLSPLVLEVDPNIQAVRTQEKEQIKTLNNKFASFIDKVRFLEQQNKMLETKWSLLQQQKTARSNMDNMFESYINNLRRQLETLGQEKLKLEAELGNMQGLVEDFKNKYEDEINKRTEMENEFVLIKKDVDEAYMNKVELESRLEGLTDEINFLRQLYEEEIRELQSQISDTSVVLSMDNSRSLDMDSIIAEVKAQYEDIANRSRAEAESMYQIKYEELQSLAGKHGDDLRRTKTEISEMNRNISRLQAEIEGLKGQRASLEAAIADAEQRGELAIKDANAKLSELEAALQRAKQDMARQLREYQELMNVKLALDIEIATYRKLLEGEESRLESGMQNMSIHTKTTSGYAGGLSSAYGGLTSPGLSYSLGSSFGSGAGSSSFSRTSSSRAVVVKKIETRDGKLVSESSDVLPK
Test: Antibody binding assay by flow cytometry (eCK8 expression on solid tumour cell lines)
Conditions: MAb 5 μg/mL, mean ± SD
Method: Cell lines. The established human neuroglioma cells H4, HS683, U373 or A172 (available from ATCC); the established human colorectal cells HT29; the established human pancreatic cells PANC1 or MIA-PA-CA2; the established human kidney adenocarcinoma cells A704 or ACHN and the established human lung adenocarcinoma cells A549 were grown in Dulbecco's Modified Eagle's Medium (Sigma, St Quentin Fallavier, France) supplemented with 10% heat-inactivated foetal bovine serum (FBS) (Sigma, St Quentin Fallavier, France), […] L-glutamine (Sigma, St Quentin Fallavier, France) and 100 U/mL, 100 μg/mL penicillin-streptomycin (Sigma, St Quentin Fallavier, France). The established human glioblastoma astrocytoma cells U87MG or T98G, the human head and neck cancer cells FaDu or Detroit562, the human urinary cancer cells UM-UC-3, J82, HT1197 or HT1376 and the human prostate cancer cells DU145 were grown in Eagle's Minimum Essential Medium (Sigma, St Quentin Fallavier, France) supplemented with 10% heat-inactivated fetal bovine serum (FBS) (Sigma, St Quentin Fallavier, France), […] L-glutamine (Sigma, St Quentin Fallavier, France) and 100 U/mL, 100 μg/mL penicillin-streptomycin (Sigma, St Quentin Fallavier, France). The established human breast adenocarcinoma cells MDAMB231, MCF-7 or HBL100 and the human colorectal cancer cells HCT116 were grown in Dulbecco's Modified Eagle's Medium Glutamax Low Glucose (Life Technologies, St Aubin, France) supplemented with 10% heat-inactivated fetal bovine serum (FBS) (Sigma, St Quentin Fallavier, France), […] L-glutamine (Sigma, St Quentin Fallavier, France) and 100 U/mL, 100 μg/mL penicillin-streptomycin (Sigma, St Quentin Fallavier, France).The established human colorectal cells HCT15 or SW480 and the human head and neck cancer cells TR146 were grown in Dulbecco's Modified Eagle's Medium Glutamax High Glucose (Life Technologies, St Aubin, France) supplemented with 10% heat-inactivated fetal bovine serum (FBS) (Sigma, St Quentin Fallavier, France) and 100 U/mL, 100 μg/mL penicillin-streptomycin (Sigma, St Quentin Fallavier, France). The established human head and neck cancer cells BICR16, BICR18 or BICR56 were grown in Dulbecco's Modified Eagle's Medium (Sigma, St Quentin Fallavier, France) supplemented with 10% heat-inactivated foetal bovine serum (FBS) (Sigma, St Quentin Fallavier, France), […] L-glutamine (Sigma, St Quentin Fallavier, France), 100 U/mL, 100 μg/mL penicillin-streptomycin (Sigma, St Quentin Fallavier, France) and 0.4 μg/mL hydrocortisone (Sigma, St Quentin Fallavier, France). The established human head and neck cancer cells SCC9, SCC4 or SCC15 were grown in Dulbecco's Modified Eagle's Medium/F12 (Life Technologies, St Aubin, France) supplemented with 10% heat-inactivated foetal bovine serum (FBS) (Sigma, St Quentin Fallavier, France), […] L-glutamine (Sigma, St Quentin Fallavier, France), 100 U/mL, 100 μg/mL penicillin-streptomycin (Sigma, St Quentin Fallavier, France) and 0,4 μg/mL hydrocortisone (Sigma, St Quentin Fallavier, France). The established human urinary bladder carcinoma cells 5637, the human prostate cancer cells LNCap clone FGC, the established human lung adenocarcinoma cells NCIH1703 or NCIH292, the human pancreatic cancer cells PSN1 or BxPC3 and the human kidney adenocarcinoma cells Caki1 were grown in RPMI-1640 Medium (Sigma, St Quentin Fallavier, France) supplemented with 10% heat-inactivated fetal bovine serum (FBS) (Sigma, St Quentin Fallavier, France), […] L-glutamine (Sigma, St Quentin Fallavier, France) and 100 U/mL, 100 μg/mL penicillin-streptomycin (Sigma, St Quentin Fallavier, France). […]

[1] = Detroit562 cell line (Head & Neck)
[2] = LNCaP clone FGC cell line (Prostate)
[3] = MIA-Pa-Ca-2 cell line (Pancreatic)

B1: HzR022 (D-A10): humanized anti-CK8 monoclonal antibody D-A10; VL SEQ ID NO: 14, VH SEQ ID NO: 15 (antibody, V domains shown)
VH: EVQLVESGGGLVQPGGSLRLSCAASGFTFSSYWMSWVRQAPGKGLVWVSDINSDGSSTKYADSVKGRFTISRDNAKNTLYLQMNSLRAEDTAVYYCIAHYSGGGFAYWGQGTLVTVSS
VL: DIVMTQAPLSLPVTPGEPASISCRSSKSLLYSNGYNYLYWFLQKPGQSPQLLIYYMSNLASGVPDRFSGSGSGTDFTLKISRVEAEDVGVYYCMQSLEYPFTFGQGTKLEIK
modifications: VHHzD-A10; VLHzD-A10
With B1 the “% labelled cells” value (8-MG-BA cell line (GBM)) was 72 ± 11%, the MFI (8-MG-BA cell line (GBM)) was 261 ± 38 and the “% labelled cells” value (42-MG-BA cell line (GBM)) was 54 ± 7%. For the same molecule, the MFI (42-MG-BA cell line (GBM)) was 247 ± 44, the “% labelled cells” value (5637 cell line (Urinary)) was 59 ± 20% and the MFI (5637 cell line (Urinary)) was 284 ± 61. The “% labelled cells” value (A172 cell line (GBM)) was 35 ± 23%, the MFI (A172 cell line (GBM)) was 186 ± 14 and the “% labelled cells” value (A549 cell line (Lung)) was 36 ± 12%. For the same molecule, the MFI (A549 cell line (Lung)) was 193 ± 38, the “% labelled cells” value (A704 cell line (Renal)) was 37 ± 26% and the MFI (A704 cell line (Renal)) was 184 ± 30. For the same molecule, the “% labelled cells” value (ACHN cell line (Renal)) was 46 ± 20%, the MFI (ACHN cell line (Renal)) was 195 ± 20 and the “% labelled cells” value (AsPC-1 cell line (Pancreatic)) was 26 ± 14%. For the same molecule, the MFI (AsPC-1 cell line (Pancreatic)) was 181 ± 17, the “% labelled cells” value (BICR16 cell line (Head & Neck)) was 52 ± 2% and the MFI (BICR16 cell line (Head & Neck)) was 206 ± 10. For the same molecule, the “% labelled cells” value (BICR18 cell line (Head & Neck)) was 79 ± 9%, the MFI (BICR18 cell line (Head & Neck)) was 257 ± 23 and the “% labelled cells” value (BICR56 cell line (Head & Neck)) was 39 ± 34%. For the same molecule, the MFI (BICR56 cell line (Head & Neck)) was 123 ± 4, the “% labelled cells” value (BxPC-3 cell line (Pancreatic)) was 41 ± 17% and the MFI (BxPC-3 cell line (Pancreatic)) was 220 ± 17. The “% labelled cells” value (CFPAC-1 cell line (Pancreatic)) was 62 ± 4%, the MFI (CFPAC-1 cell line (Pancreatic)) was 279 ± 25 and the “% labelled cells” value (Caki1 cell line (Renal)) was 49 ± 12%. The MFI (Caki1 cell line (Renal)) was 267 ± 36, the “% labelled cells” value (DU145 cell line (Prostate)) was 19 ± 11% and the MFI (DU145 cell line (Prostate)) was 185 ± 42. The “% labelled cells” value [1] was 36 ± 0%, the MFI [1] was 203 ± 15 and the “% labelled cells” value (FaDu cell line (Head & Neck)) was 56 ± 8%. For the same molecule, the MFI (FaDu cell line (Head & Neck)) was 258 ± 20, the “% labelled cells” value (H4 cell line (GBM)) was 58 ± 33% and the MFI (H4 cell line (GBM)) was 199 ± 40. The “% labelled cells” value (HBL100 cell line (Breast)) was 67 ± 8%, the MFI (HBL100 cell line (Breast)) was 219 ± 6 and the “% labelled cells” value (HCT116 cell line (Colon)) was 64 ± 0%. For the same molecule, the MFI (HCT116 cell line (Colon)) was 283 ± 16, the “% labelled cells” value (HS683 cell line (GBM)) was 54 ± 9% and the MFI (HS683 cell line (GBM)) was 225 ± 24. The “% labelled cells” value (HT29 cell line (Colon)) was 49 ± 9%, the MFI (HT29 cell line (Colon)) was 203 ± 22 and the “% labelled cells” value (HT1197 cell line (Urinary)) was 23 ± 7%. The MFI (HT1197 cell line (Urinary)) was 240 ± 4, the “% labelled cells” value (HT1376 cell line (Urinary)) was 53 ± 3% and the MFI (HT1376 cell line (Urinary)) was 497 ± 11. The “% labelled cells” value (HuP-T3 cell line (Pancreatic)) was 62 ± 17%, the MFI (HuP-T3 cell line (Pancreatic)) was 260 ± 20 and the “% labelled cells” value (J82 cell line (Urinary)) was 68 ± 9%. The MFI (J82 cell line (Urinary)) was 319 ± 4, the “% labelled cells” value [2] was 76 ± 9% and the MFI [2] was 412 ± 21. The “% labelled cells” value (MCF-7 cell line (Breast)) was 56 ± 33%, the MFI (MCF-7 cell line (Breast)) was 250 ± 61 and the “% labelled cells” value (MDAMB231 cell line (Breast)) was 49 ± 14%. The MFI (MDAMB231 cell line (Breast)) was 179 ± 15, the “% labelled cells” value [3] was 58 ± 14% and the MFI [3] was 264 ± 14. For the same molecule, the “% labelled cells” value (NCIH292 cell line (Lung)) was 53 ± 20%, the MFI (NCIH292 cell line (Lung)) was 272 ± 38 and the “% labelled cells” value (NCIH1703 cell line (Lung)) was 33 ± 10%. For the same molecule, the MFI (NCIH1703 cell line (Lung)) was 188 ± 12, the “% labelled cells” value (PANC-1 cell line (Pancreatic)) was 37 ± 7% and the MFI (PANC-1 cell line (Pancreatic)) was 198 ± 23. The “% labelled cells” value (PSN-1 cell line (Pancreatic)) was 15 ± 6%, the MFI (PSN-1 cell line (Pancreatic)) was 193 ± 16 and the “% labelled cells” value (SCC4 cell line (Head & Neck)) was 59 ± 16%. For the same molecule, the MFI (SCC4 cell line (Head & Neck)) was 222 ± 88, the “% labelled cells” value (SCC9 cell line (Head & Neck)) was 30 ± 23% and the MFI (SCC9 cell line (Head & Neck)) was 193 ± 23. The “% labelled cells” value (SCC 15 cell line (Head & Neck)) was 41 ± 21%, the MFI (SCC 15 cell line (Head & Neck)) was 167 ± 13 and the “% labelled cells” value (SW480 cell line (Colon)) was 38 ± 3%. For the same molecule, the MFI (SW480 cell line (Colon)) was 179 ± 1, the “% labelled cells” value (T98G cell line (GBM)) was 48 ± 25% and the MFI (T98G cell line (GBM)) was 211 ± 20. For the same molecule, the “% labelled cells” value (TCCSUP cell line (Urinary)) was 62 ± 10%, the MFI (TCCSUP cell line (Urinary)) was 255 ± 48 and the “% labelled cells” value (TR146 cell line (Head & Neck)) was 55 ± 18%. For the same molecule, the MFI (TR146 cell line (Head & Neck)) was 140 ± 4, the “% labelled cells” value (U87-MG cell line (GBM)) was 38 ± 23% and the MFI (U87-MG cell line (GBM)) was 178 ± 35. The “% labelled cells” value (U373 cell line (GBM)) was 53 ± 1%, the MFI (U373 cell line (GBM)) was 161 ± 7 and the “% labelled cells” value (UM-UC-3 cell line (Urinary)) was 26 ± 23%. The MFI (UM-UC-3 cell line (Urinary)) was 156 ± 14.
